Literature values in PMC3728333, “Development of an Epidermal Growth Factor Derivative with EGFR Blocking Activity” (PLoS ONE, 2013).

Legend:
[1] = tested on: EGFR-positive breast cancer cells
Text: (§1) Moreover, EGFt could also be used as a targeted toxin delivery agent. In this respect, we are currently developing ^111In–DTPA–EGFt as a potential Auger electron-emitting radiotherapeutic for EGFR-positive breast cancer.

[2] = tested on: EGFR-positive breast cancer; conditions: ref [44], [45]
Text: as §1

B1: ^111In-DTPA-hEGF: ^111In-DTPA-hEGF, Kd value obtained from previous work (conjugate, UniProt P01133 23-1207, looked up)
Pro-epidermal growth factor: PQHWSCPEGTLAGNGNSTCVGPAPFLIFSHGNSIFRIDTEGTNYEQLVVDAGVSVIMDFHYNEKRIYWVDLERQLLQRVFLNGSRQERVCNIEKNVSGMAINWINEEVIWSNQQEGIITVTDMKGNNSHILLSALKYPANVAVDPVERFIFWSSEVAGSLYRADLDGVGVKALLETSEKITAVSLDVLDKRLFWIQYNREGSNSLICSCDYDGGSVHISKHPTQHNLFAMSLFGDRIFYSTWKMKTIWIANKHTGKDMVRINLHSSFVPLGELKVVHPLAQPKAEDDTWEPEQKLCKLRKGNCSSTVCGQDLQSHLCMCAEGYALSRDRKYCEDVNECAFWNHGCTLGCKNTPGSYYCTCPVGFVLLPDGKRCHQLVSCPRNVSECSHDCVLTSEGPLCFCPEGSVLERDGKTCSGCSSPDNGGCSQLCVPLSPVSWECDCFPGYDLQLDEKSCAASGPQPFLLFANSQDIRHMHFDGTDYGTLLSQQMGMVYALDHDPVENKIYFAHTALKWIERANMDGSQRERLIEEGVDVPEGLAVDWIGRRFYWTDRGKSLIGRSDLNGKRSKIITKENISQPRGIAVHPMAKRLFWTDTGINPRIESSSLQGLGRLVIASSDLIWPSGITIDFLTDKLYWCDAKQSVIEMANLDGSKRRRLTQNDVGHPFAVAVFEDYVWFSDWAMPSVMRVNKRTGKDRVRLQGSMLKPSSLVVVHPLAKPGADPCLYQNGGCEHICKKRLGTAWCSCREGFMKASDGKTCLALDGHQLLAGGEVDLKNQVTPLDILSKTRVSEDNITESQHMLVAEIMVSDQDDCAPVGCSMYARCISEGEDATCQCLKGFAGDGKLCSDIDECEMGVPVCPPASSKCINTEGGYVCRCSEGYQGDGIHCLDIDECQLGEHSCGENASCTNTEGGYTCMCAGRLSEPGLICPDSTPPPHLREDDHHYSVRNSDSECPLSHDGYCLHDGVCMYIEALDKYACNCVVGYIGERCQYRDLKWWELRHAGHGQQQKVIVVAVCVVVLVMLLLLSLWGAHYYRTQKLLSKNPKNPYEESSRDVRSRRPADTEDGMSSCPQPWFVVIKEHQDLKNGGQPVAGEDGQAADGSMQPTSWRQEPQLCGMGTEQGCWIPVSSDKGSCPQVMERSFHMPSYGTQTLEGGVEKPHSLLSANPLWQQRALDPPHQMELTQ
modifications: Pro-epidermal growth factor 111In-DTPA
**Q.** Which “cytotoxic effects in vitro” value [1] does the source give for B1 here?
**A.** potent cytotoxic effects in vitro

**Q.** And the “tumour growth inhibition in vivo” value [2]?
**A.** tumour growth-inhibition in vivo
